Assays:
CD28 [1] = biological target: T1, CD28 (Homo sapiens, UniProt P10747); experiment: Jurkat/IL2 + K562/OKT3 (no PD-L1) reporter assay of CD80 ECD-Fc (effector); type: cell-based; parameters: host or cells: Jurkat cells expressing an IL-2-luciferase reporter; details: aAPC without PD-L1
Description: The bioactivity of the generated molecules also was assessed using a Jurkat report assay as described in Examples 9 to assess CD28 costimulation of the molecules.

CD28 [2] = biological target: T1, CD28; experiment: Flow binding to Jurkat/IL2 reporter cells (CD28); parameters: host or cells: Jurkat cells expressing an IL-2-luciferase reporter; details: for CD28 MFI at 33.3 nM: Table E19, Jurkats (CD28)
Method in brief: (§1)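 Flow cytometry on transfected CHO cells or CD28+ Jurkat/IL2 reporter cells, blocked 20 min in PBS/1% BSA/0.1% azide. Fusion protein 45 min on ice; PE anti-human Fc 1:150, 30 min on ice; fixed in 2% formaldehyde. Read-out PE MFI, EC50 calculated.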

huCTLA4 = huCTLA4 (Homo sapiens, UniProt P16410); experiment: Flow binding to CHO cells stably expressing CTLA4; parameters: huCTLA4 and huPD-L1, full-length mammalian surface expression constructs were generated; expressed in transfected cells; host or cells: CHO cells, lentiviral transduction, sorted to >98% purity; details: for CTLA4 MFI at 33.3 nM: Table E19, CHO cells stably expressing CTLA4
Method in brief: as §1

huPD-L1 = huPD-L1 (Homo sapiens, UniProt Q9NZQ7); experiment: Flow binding to CHO cells stably expressing PD-L1; parameters: huCTLA4 and huPD-L1, full-length mammalian surface expression constructs were generated; expressed in transfected cells; host or cells: CHO cells, lentiviral transduction, sorted to >98% purity; details: for PD-L1 MFI at 33.3 nM: Table E19, CHO cells stably expressing PD-L1
Method in brief: as §1

CD28 [3] = biological target: T1, CD28; experiment: Jurkat/IL2 + CHO/OKT3 +/- PD-L1 reporter assay: PD-L1-dependent CD28 costimulation; type: cell-based; parameters: host or cells: Jurkat cells expressing an IL-2-luciferase reporter; details: for PD-L1-Dependent CD28 Costimulation, +PD-L1, 0.6 nM / PD-L1-Dependent CD28 Costimulation, +PD-L1, 50 nM: CHO/OKT3/PD-L1 aAPC; for PD-L1-Dependent CD28 Costimulation, +PD-L1, 0.6 nM / PD-L1-Dependent CD28 Costimulation, +PD-L1, 50 nM / PD-L1-Dependent CD28 Costimulation, No PD-L1, 50 nM / PD-L1-Dependent CD28 Costimulation, No PD-L1, […]: luciferase signal; for PD-L1-Dependent CD28 Costimulation, No PD-L1, 50 nM / PD-L1-Dependent CD28 Costimulation, No PD-L1, […]: CHO/OKT3 aAPC
Method in brief: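 Jurkat reporter cells (100,000/well) preincubated 15 min at room temperature with test protein, then cocultured 5 h at 37 °C with CHO aAPCs bearing anti-CD3 scFv (OKT3) with or without PD-L1. Luciferase luminescence (RLU) read after lysis-substrate addition.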

CD28 [4] = biological target: T1, CD28; experiment: CD28 costimulation via Fc receptor or PD-L1 dependent cross-linking (Jurkat/IL2 + K562/OKT3 +/- PD-L1); type: cell-based; parameters: host or cells: Jurkat cells expressing an IL-2-luciferase reporter; details: K562/0KT3 aAPC, luciferase signal
Description: In a further experiment, CD28 costimulation was assessed for variant CD80-IgV-Fc fusion proteins, where the Fc was an IgG1 Fc (e.g. SEQ ID NO:1517) capable of mediating effector activity via binding to Fc receptors (FcR). The experiment was carried out as described in part A above, except CD32-expressing K562 cells stably transduced with OKT3 (K562/OKT3) or OKT3 and PD-L1 (K562/OKT3/PD-L1) were used instead of the CHO/OKT3 and CHO/OKT3/PD-L1 cells, and the results are depicted in Table E9.

Pan T cells = experiment: Primary T cell stimulation assay with K562/OKT3 +/- PD-L1 (IL-2, IFN-gamma, proliferation); type: cell-based, human; details: 1, 10, 100 nM; 72 hr
Description: IFN-gamma, IL-2 and proliferation were determined after 72 hr. incubation.

CD28 [5] = biological target: T1, CD28; experiment: Jurkat/IL2 reporter assay: blockade of CD28 costimulation (plate-bound anti-CD3/CD86-Fc); type: cell-based; parameters: host or cells: Jurkat cells expressing an IL-2-luciferase reporter; details: Table E5; protein diluted to 40 nM before mixing with cells; 5 hours
Method in brief: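 Jurkat cells carrying an IL-2–luciferase reporter were preincubated 15 min at room temperature with CD80-Fc fusion molecules, then added to plates coated overnight with anti-CD3 and CD86-Fc. After 5 h at 37 °C, luciferase luminescence was read with Bio-Glo.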

MC38 hPD-L1 tumor cells = experiment: MC38 hPD-L1 tumor model in C57BL/6 mice; type: in vivo, mouse
Description: Mouse MC38 tumor cells were stably transfected with human PD-L1 (MC38 hPD-L1) and implanted subcutaneously into C57BU6 mice. […] Tumor volume was tracked over time.
70 female C57CL/6 mice, containing similar tumor volumes of approximately 50-51 mm^3, following implantation of MC38 hPD-L1 tumor cells, were staged and divided into 5 treatment groups containing 14 mice each. […] Tumor volumes were measured on days 7, 10, and 12. On day 13, 5 animals were sacrificed for analysis as described in the sections below. Tumor measurements resumed for the remaining 9 mice for each group on days 17, 20 and 27. On days 26, 28, and 31, the animals in Group 1 (Fc isotype control) received an intratumoral injection of 100 μg E35D/M47L CD80-IgV-Fc.
95 female C57BU6 mice were implanted with MC38 hPD-L1 tumor cells. The tumors were staged on Day 7, and 77 mice with similar tumor volumes of approximately 60 mm^3 were divided into 7 treatment groups containing 11 mice each.
On day 49, tumor-free mice, from Groups 3, 4, 6, and 7, and 2 naïve C57CL/6 mice were re-challenged with an additional injection of hPD-L1 MC38 cells. Tumor volumes were measured on days 56, 59, and 63. The results are depicted in FIG. 13. […] At day 59, 8/8 mice from Group 3, 1/2 mice from Group 4, 1/1 mouse from Group 6, and 2/2 mice from Group 7 were tumor-free, and by day 63, all mice in Group 3, Group 4, Group 6, and Group 7 were tumor-free.
75 animals were staged into 3 treatment groups 7 days after implantation with hPD-L1 MC38 tumor cells. […] Tumor volumes were measured every 3-4 days, from Day 11 until Day 35. 3 days after the 1st dose, 2nd dose and 3rd dose, 4 mice from each group were sacrificed for tumor and LN analyses, leaving 13 mice for tumor volume measurements throughout the study period.

[6] = re-challenged on day 49 with hPD-L1 MC38 cells

huPD-L1, sequence (Q9NZQ7 19-290): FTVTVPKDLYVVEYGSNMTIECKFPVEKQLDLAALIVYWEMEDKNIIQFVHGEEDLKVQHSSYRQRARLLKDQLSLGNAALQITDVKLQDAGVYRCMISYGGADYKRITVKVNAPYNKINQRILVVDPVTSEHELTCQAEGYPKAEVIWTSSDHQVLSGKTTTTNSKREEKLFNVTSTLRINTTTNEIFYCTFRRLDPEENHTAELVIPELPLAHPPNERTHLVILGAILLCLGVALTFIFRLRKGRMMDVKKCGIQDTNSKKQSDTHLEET
huCTLA4, sequence (P16410 36-223): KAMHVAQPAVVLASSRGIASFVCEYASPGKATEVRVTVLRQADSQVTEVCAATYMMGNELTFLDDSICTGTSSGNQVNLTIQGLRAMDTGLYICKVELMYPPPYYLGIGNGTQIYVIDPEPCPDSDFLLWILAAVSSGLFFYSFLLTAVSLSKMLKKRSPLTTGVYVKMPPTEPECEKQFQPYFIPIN

Row | Molecule | PD-L1-Dependent CD28 Costimulation, +PD-L1, 0.6 nM (CD28 [3]) | PD-L1-Dependent CD28 Costimulation, +PD-L1, 50 nM (CD28 [3]) | PD-L1-Dependent CD28 Costimulation, No PD-L1, 50 nM (CD28 [3]) | PD-L1-Dependent CD28 Costimulation, No PD-L1, […] (CD28 [3]) | CD28 costimulation, FcR Dependent Cross-Linking (No PD-L1), 0.6 nM (CD28 [4]) | CD28 costimulation, FcR Dependent Cross-Linking (No PD-L1), 50 nM (CD28 [4]) | Average Relative Luminescence Units (CD28 [5]) | CD28 MFI at 33.3 nM (CD28 [2]) | CTLA4 MFI at 33.3 nM (huCTLA4) | PD-L1 MFI at 33.3 nM (huPD-L1) | also measured
1 | CD80 (A91G/I118V/T120S/T130A) ECD-Fc: variant full CD80 ECD fused to effector human IgG1 Fc (SEQ ID NO:1527) (protein) VIHVTKEVKEVATLSCGHNVSVEELAQTRIYWQKEKKMVLTMMSGDMNIWPEYKNRTIFDITNNLSIVILALRPSDEGTYECVVLKYEKDGFKREHLAEVTLSVKADFPTPSISDFEVPSSNIRRIICSASGGFPEPHLSWLENGEELNAINTTVSQDPETELYAVSSKLDFNMTTNHSFMCLIKYGHLRVNQTFNWNTTKQEHFPDN | – | – | – | – | – | – | – | – | – | – | Relative Luminescence at 98 pM (CD28 [1]; 98 pM): 1098 RLU; Relative Luminescence at 391 pM (CD28 [1]; 391 pM): 1119 RLU; Relative Luminescence at 1563 pM (CD28 [1]; 1563 pM): 1288 RLU; Relative Luminescence at 6250 pM (CD28 [1]; 6250 pM): 1761 RLU; Relative Luminescence at 25000 pM (CD28 [1]; 25000 pM): 2209 RLU; Relative Luminescence at 100000 pM (CD28 [1]; 100000 pM): 2750 RLU; Jurkat/CD28 MFI at 66.7 nM (CD28 [2]; 66.7 nM): 720; EC50 (CD28 [2]; flow binding, read-out: Jurkat/CD28 EC50): > 200 nM; CHO/CTLA4 MFI at 66.7 nM (huCTLA4; 66.7 nM): 24801; EC50 (huCTLA4; flow binding): 4.3 nM; CHO/PD-L1 MFI at 66.7 nM (huPD-L1; 66.7 nM): 107
2 | E35G/K54E/A71D/L72P: variant CD80 IgV-Fc, IgV SEQ ID NO:219 (protein) VIHVTKEVKEVATLSCGHNVSVEELAQTRIYWQKGKKMVLTMMSGDMNIWPEYENRTIFDITNNLSIVILDPRPSDEGTYECVVLKYEKDAFKREHLAEVTLSVKAD | 529 | 476 | 440 | 417 | 1337 | 1510 | – | – | – | – | CD28 costimulation and IL-2 production (Pan T cells): did not generate significant costimulation and IL-2 production
3 | E23G/A26S/E35D/T62N/A71D/L72V/L85M: variant CD80 IgV-Fc, IgV SEQ ID NO:216 (protein) VIHVTKEVKEVATLSCGHNVSVGELSQTRIYWQKDKKMVLTMMSGDMNIWPEYKNRTIFDINNNLSIVILDVRPSDEGTYECVVMKYEKDAFKREHLAEVTLSVKAD | 524 | 695 | 606 | 566 | 2022 | 7855 | 2067 Relative Luminescence Units | – | – | – | –
4 | E35D/M47L: variant CD80 IgV-Fc, IgV SEQ ID NO:208 (protein) VIHVTKEVKEVATLSCGHNVSVEELAQTRIYWQKDKKMVLTMMSGDLNIWPEYKNRTIFDITNNLSIVILALRPSDEGTYECVVLKYEKDAFKREHLAEVTLSVKAD | – | – | – | – | 2119 | 8685 | 1110 Relative Luminescence Units | 411 | 48010 | 7529 | mice with no detectable tumors (tumor-free) upon completion of the study (MC38 hPD-L1 tumor cells; 100 μg on days 7, 9 and 11, 11 mice per group): 1 mice; tumor growth / tumor volume (MC38 hPD-L1 tumor cells; i.p. dosing, compared to Fc control or anti-PD-L1): dose-dependent decrease in tumor volumes; tumor-free mice after re-challenge, day 59 (MC38 hPD-L1 tumor cells; [6]): 1/1; tumor-free mice after re-challenge, day 63 (MC38 hPD-L1 tumor cells; [6]): tumor-free
5 | E35D/D46V/L85Q: variant CD80 IgV-Fc, IgV SEQ ID NO:203 (protein) VIHVTKEVKEVATLSCGHNVSVEELAQTRIYWQKDKKMVLTMMSGVMNIWPEYKNRTIFDITNNLSIVILALRPSDEGTYECVVQKYEKDAFKREHLAEVTLSVKAD | 611 | 2224 | 720 | 511 | 1880 | 7015 | 3230 Relative Luminescence Units | 196 | 48005 | 4039 | Relative Luciferase Units (RLU), CD80 Conc 5.0 nM (CD28 [3]; Table E21, Jurkat/IL2 + CHO/OKT3/PD-L1, CD80 Conc 5.0 nM): 410 RLU
